Assay results as given in the supplement of paper PMC10724198.
± gives the standard deviation of the averaged measurements.

Test system: Saccharomyces cerevisiae
Assay: protein stability index of tFT-peptide fusion (C-terminal peptide) (PSI (0-1 scale)); higher = more stable (slower turnover)
Details: genetic background: wild type; temperature: 30 C
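Also: PSI is a weighted mean of sequencing reads over stability bins, variants kept only with over 10 reads, mCherry proximal and sfGFP distal, peptide attached via GGGS linker.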

Row | Sequence | protein stability index
1 | PPTSPGPGSLYS | 0.693 ± 0.036
2 | PPTSPSNALPFA | 0.6666 ± 0.0032
3 | PPVLPPPAPLPP | 0.6548 ± 0.0047
4 | PPVRLLPCVCHF | 0.708 ± 0.049
5 | PPWLPAPFPLPD | 0.695 ± 0.045
6 | PPWPPYPRPPSS | 0.679 ± 0.053
7 | PPWTNALMILLD | 0.689 ± 0.039
8 | PPYPPTPHQTSH | 0.641 ± 0.034
9 | PPYSIPARAPHP | 0.7036 ± 0.0015
10 | PQFSPCRLALLS | 0.616 ± 0.018
11 | PQIRTPIPGSFS | 0.743 ± 0.074
12 | PQNTNNPENGHC | 0.667 ± 0.04
13 | PQPEAPSRPQLA | 0.746 ± 0.065
14 | PQRPPPALACPP | 0.703 ± 0.083
15 | PQSKWLTTFRQK | 0.713 ± 0.095
16 | PQSSGVSPIPPP | 0.77 ± 0.078
17 | PQSSLPPLSTSS | 0.686 ± 0.011
18 | PQTSRAPFPPPP | 0.7125 ± 0.0058
19 | PQVGWFCNRLEV | 0.836 ± 0.17
20 | PQWFPNYLRLLL | 0.517 ± 0.041
21 | PRAGPPPPPPSP | 0.734 ± 0.028
22 | PRAPRPHPLTNF | 0.673 ± 0.051
23 | PRASDPPPSPYP | 0.766 ± 0.057
24 | PRCPSTPQPEHH | 0.739 ± 0.027
25 | PRELFGFNLAQP | 0.692 ± 0.011
26 | PRGLGPPGWGRR | 0.697 ± 0.022

Row | Sequence | protein stability index
27 | PRGLLLPLPCHS | 0.574 ± 0.00058
28 | PRLDPTSPPPHA | 0.675 ± 0.0094
29 | PRLFLFRSSFPP | 0.681 ± 0.048
30 | PRLIESYRPITS | 0.715 ± 0.09
31 | PRLPPPHRRPAP | 0.759 ± 0.022
32 | PRLRRVCGQSLV | 0.6664 ± 0.0066
33 | PRLSLPSAPPRP | 0.732 ± 0.08
34 | PRPGQPFSRFRF | 0.6724 ± 0.0054
35 | PRPGSRCPIKGR | 0.692 ± 0.024
36 | PRPLFVHTSSTF | 0.7105 ± 0.0024
37 | PRPLLLLPPATP | 0.703 ± 0.029
38 | PRPLLVPPLFKS | 0.768 ± 0.031
39 | PRPLPVCTDVHD | 0.642 ± 0.019
40 | PRPPLPPASPPL | 0.595 ± 0.044
41 | PRPPLPSLHLSP | 0.679 ± 0.024
42 | PRPPPATRPGPP | 0.688 ± 0.017
43 | PRPPPSFPPDPS | 0.669 ± 0.049
44 | PRPPSSSPHPHP | 0.727 ± 0.095
45 | PRPTPPHPPITR | 0.824 ± 0.027
46 | PRPTPPHSPLLP | 0.586 ± 0.02
47 | PRPVRAVEMLTL | 0.715 ± 0.029
48 | PRSLLSPPGSVD | 0.704 ± 0.026
49 | PRSPTPPPSYSP | 0.715 ± 0.11
50 | PRVCSCFLPTRP | 0.711 ± 0.01
51 | PRVCSLLPSGSF | 0.711 ± 0.014
52 | PRYRTPPLPPPG | 0.55 ± 0.012

Row | Sequence | protein stability index
53 | PSADRQSMRCRR | 0.631 ± 0.007
54 | PSALPLVPSPLP | 0.706 ± 0.033
55 | PSAPFLPSPPPV | 0.661 ± 0.021
56 | PSAWRCFSTGKV | 0.844 ± 0.018
57 | PSDLPPPTPLLA | 0.63 ± 0.022
58 | PSDSRSTPPTPD | 0.698 ± 0.033
59 | PSFFFFAAPLPL | 0.623 ± 0.028
60 | PSFLPLWFSRLR | 0.731 ± 0.093
61 | PSFVIQRCPMIL | 0.606 ± 0.076
62 | PSFVRTVPSPCP | 0.658 ± 0.011
63 | PSGCIPCNVGVS | 0.705 ± 0.099
64 | PSGSFPPCLGSP | 0.653 ± 0.018
65 | PSGVKILFELKP | 0.645 ± 0.03
66 | PSHPSPPPPAPP | 0.692 ± 0.041
67 | PSHRPWPPTRPP | 0.677 ± 0.033
68 | PSIKRSVKPFSP | 0.857 ± 0.2
69 | PSIPSNPPTPPR | 0.72 ± 0.033
70 | PSLARWLTLGYM | 0.63 ± 0.013
71 | PSLNPRVSFVNL | 0.685 ± 0.0073
72 | PSLSPSLLRFNL | 0.66 ± 0.015
73 | PSLSPSPRITSS | 0.65 ± 0.077
74 | PSMLFPRTLSPL | 0.6963 ± 0.0056
75 | PSPALPANQSFY | 0.665 ± 0.019
76 | PSPLLPPPLPPS | 0.678 ± 0.046
77 | PSPLPPPPLPLS | 0.5739 ± 0.0048
78 | PSPLPPVPPPPP | 0.639 ± 0.095

Row | Sequence | protein stability index
79 | PSPPAPPPSPLP | 0.823 ± 0.15
80 | PSPPPAPAPLLA | 0.667 ± 0.032
81 | PSPPPPPPPGSF | 0.677 ± 0.06
82 | PSPPPPPSPSPP | 0.626 ± 0.014
83 | PSPPPSQSLPPP | 0.717 ± 0.043
84 | PSPPPVSPVVPP | 0.672 ± 0.036
85 | PSPPTSLPPTDA | 0.706 ± 0.029
86 | PSPPTYPSFPSR | 0.724 ± 0.041
87 | PSPSLYPPASPP | 0.654 ± 0.046
88 | PSPSVVPASSPP | 0.669 ± 0.03
89 | PSPVPPSPPPSP | 0.512 ± 0.083
90 | PSPVPSLPPFLP | 0.745 ± 0.13
91 | PSRLPSPPPPPP | 0.721 ± 0.073
92 | PSRLSKTLLMGW | 0.676 ± 0.07
93 | PSRPPPTPPLPP | 0.629 ± 0.14
94 | PSRSFLPTHCSL | 0.666 ± 0.017
95 | PSRYHLFLPSPA | 0.73 ± 0.055
96 | PSSFIRFLLCCF | 0.644 ± 0.04
97 | PSSPPPPPLSPL | 0.664 ± 0.017
98 | PSSPPTPLPPRS | 0.663 ± 0.077
99 | PSSTSPPPPPPP | 0.695 ± 0.025
100 | PSSWPPPPPPLP | 0.614 ± 0.022
101 | PSSYFFPPHFLL | 0.665 ± 0.1
